Data reported in IntAct's records for PubMed 29039417.

B1: BBSome-interacting protein 1 (Homo sapiens), A8MTZ0 (parent)
chain: MLKAAAKRPELSGKNTISNNSDMAEVKSMFREVLPKQGPLFVEDIMTMVLCKPKLLPLKSLTLEKLEKMHQAAQNTIRQQEMAEKDQRQITH
partner: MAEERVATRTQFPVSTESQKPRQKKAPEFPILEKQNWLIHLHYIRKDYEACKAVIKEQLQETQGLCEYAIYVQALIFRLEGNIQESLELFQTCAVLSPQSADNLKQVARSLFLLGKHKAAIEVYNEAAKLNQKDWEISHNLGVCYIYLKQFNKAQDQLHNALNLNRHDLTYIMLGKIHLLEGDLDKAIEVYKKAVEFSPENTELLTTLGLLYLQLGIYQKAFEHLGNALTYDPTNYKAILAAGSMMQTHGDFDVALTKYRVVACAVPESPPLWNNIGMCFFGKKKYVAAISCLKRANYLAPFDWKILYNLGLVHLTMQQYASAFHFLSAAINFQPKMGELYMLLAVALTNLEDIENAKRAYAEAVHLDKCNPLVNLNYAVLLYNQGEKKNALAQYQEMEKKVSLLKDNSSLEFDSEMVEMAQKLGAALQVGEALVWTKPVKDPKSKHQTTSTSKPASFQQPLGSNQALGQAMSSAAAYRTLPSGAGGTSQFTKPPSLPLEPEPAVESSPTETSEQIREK

Variants of: B1
Conditions: with bbs4_human BBS4, Q96RK4

Row | effect of a mutation on the interaction | Variant
1 | with no effect | MLKAAAKRKELSGKNTISNNSDMAEVKSMFREVLPKQGPLFVEDIMTMVLCKPKLLPLKSLTLEKLEKMHQAAQNTIRQQEMAEKDQRQITH [P9K]
2 | with no effect | MLKAAAKRAELSGKNTISNNSDMAEVKSMFREVLPKQGPLFVEDIMTMVLCKPKLLPLKSLTLEKLEKMHQAAQNTIRQQEMAEKDQRQITH [P9A]
3 | with no effect | MLKAAAKREELSGKNTISNNSDMAEVKSMFREVLPKQGPLFVEDIMTMVLCKPKLLPLKSLTLEKLEKMHQAAQNTIRQQEMAEKDQRQITH [P9E]
4 | with no effect | MLKAAAKRPELSGKATISNNSDMAEVKSMFREVLPKQGPLFVEDIMTMVLCKPKLLPLKSLTLEKLEKMHQAAQNTIRQQEMAEKDQRQITH [N15A]
5 | with no effect | MLKAAAKRPELSGKKTISNNSDMAEVKSMFREVLPKQGPLFVEDIMTMVLCKPKLLPLKSLTLEKLEKMHQAAQNTIRQQEMAEKDQRQITH [N15K]
6 | with no effect | MLKAAAKRPELSGKETISNNSDMAEVKSMFREVLPKQGPLFVEDIMTMVLCKPKLLPLKSLTLEKLEKMHQAAQNTIRQQEMAEKDQRQITH [N15E]
7 | with no effect | MLEAAAKRPELSGKNTISNNSDMAEVKSMFREVLPKQGPLFVEDIMTMVLCKPKLLPLKSLTLEKLEKMHQAAQNTIRQQEMAEKDQRQITH [K3E]
8 | with no effect | MLAAAAKRPELSGKNTISNNSDMAEVKSMFREVLPKQGPLFVEDIMTMVLCKPKLLPLKSLTLEKLEKMHQAAQNTIRQQEMAEKDQRQITH [K3A]
9 | with no effect | MLKAAAKRPELEGKNTISNNSDMAEVKSMFREVLPKQGPLFVEDIMTMVLCKPKLLPLKSLTLEKLEKMHQAAQNTIRQQEMAEKDQRQITH [S12E]
10 | with no effect | MLKAAAKRPELKGKNTISNNSDMAEVKSMFREVLPKQGPLFVEDIMTMVLCKPKLLPLKSLTLEKLEKMHQAAQNTIRQQEMAEKDQRQITH [S12K]
11 | with no effect | MLKAAAKRPELAGKNTISNNSDMAEVKSMFREVLPKQGPLFVEDIMTMVLCKPKLLPLKSLTLEKLEKMHQAAQNTIRQQEMAEKDQRQITH [S12A]
12 | with no effect | MLKAAAKRPELSGKNTIENNSDMAEVKSMFREVLPKQGPLFVEDIMTMVLCKPKLLPLKSLTLEKLEKMHQAAQNTIRQQEMAEKDQRQITH [S18E]
13 | with no effect | MLKAAAKRPELSGKNTIANNSDMAEVKSMFREVLPKQGPLFVEDIMTMVLCKPKLLPLKSLTLEKLEKMHQAAQNTIRQQEMAEKDQRQITH [S18A]
14 | with no effect | MLKAAAKRPELSGKNTIKNNSDMAEVKSMFREVLPKQGPLFVEDIMTMVLCKPKLLPLKSLTLEKLEKMHQAAQNTIRQQEMAEKDQRQITH [S18K]
15 | with no effect | MLKAAAKRPELSEKNTISNNSDMAEVKSMFREVLPKQGPLFVEDIMTMVLCKPKLLPLKSLTLEKLEKMHQAAQNTIRQQEMAEKDQRQITH [G13E]
16 | with no effect | MLKAAAKRPELSAKNTISNNSDMAEVKSMFREVLPKQGPLFVEDIMTMVLCKPKLLPLKSLTLEKLEKMHQAAQNTIRQQEMAEKDQRQITH [G13A]
17 | with no effect | MLKAAAKRPELSKKNTISNNSDMAEVKSMFREVLPKQGPLFVEDIMTMVLCKPKLLPLKSLTLEKLEKMHQAAQNTIRQQEMAEKDQRQITH [G13K]
18 | with no effect | MLKAAAERPELSGKNTISNNSDMAEVKSMFREVLPKQGPLFVEDIMTMVLCKPKLLPLKSLTLEKLEKMHQAAQNTIRQQEMAEKDQRQITH [K7E]
19 | with no effect | MLKAAAARPELSGKNTISNNSDMAEVKSMFREVLPKQGPLFVEDIMTMVLCKPKLLPLKSLTLEKLEKMHQAAQNTIRQQEMAEKDQRQITH [K7A]
20 | with no effect | MLKAAAKRPELSGKNTISKNSDMAEVKSMFREVLPKQGPLFVEDIMTMVLCKPKLLPLKSLTLEKLEKMHQAAQNTIRQQEMAEKDQRQITH [N19K]
21 | with no effect | MLKAAAKRPELSGKNTISENSDMAEVKSMFREVLPKQGPLFVEDIMTMVLCKPKLLPLKSLTLEKLEKMHQAAQNTIRQQEMAEKDQRQITH [N19E]
22 | with no effect | MLKAAAKRPELSGKNTISANSDMAEVKSMFREVLPKQGPLFVEDIMTMVLCKPKLLPLKSLTLEKLEKMHQAAQNTIRQQEMAEKDQRQITH [N19A]
23 | with no effect | MAKAAAKRPELSGKNTISNNSDMAEVKSMFREVLPKQGPLFVEDIMTMVLCKPKLLPLKSLTLEKLEKMHQAAQNTIRQQEMAEKDQRQITH [L2A]
24 | with no effect | MEKAAAKRPELSGKNTISNNSDMAEVKSMFREVLPKQGPLFVEDIMTMVLCKPKLLPLKSLTLEKLEKMHQAAQNTIRQQEMAEKDQRQITH [L2E]
25 | with no effect | MKKAAAKRPELSGKNTISNNSDMAEVKSMFREVLPKQGPLFVEDIMTMVLCKPKLLPLKSLTLEKLEKMHQAAQNTIRQQEMAEKDQRQITH [L2K]
26 | with no effect | MLKAAAKRPELSGKNTASNNSDMAEVKSMFREVLPKQGPLFVEDIMTMVLCKPKLLPLKSLTLEKLEKMHQAAQNTIRQQEMAEKDQRQITH [I17A]
27 | with no effect | MLKAAAKRPELSGKNTESNNSDMAEVKSMFREVLPKQGPLFVEDIMTMVLCKPKLLPLKSLTLEKLEKMHQAAQNTIRQQEMAEKDQRQITH [I17E]

Row | effect of a mutation on the interaction | Variant
28 | with no effect | MLKAAAKRPELSGKNTKSNNSDMAEVKSMFREVLPKQGPLFVEDIMTMVLCKPKLLPLKSLTLEKLEKMHQAAQNTIRQQEMAEKDQRQITH [I17K]
29 | with no effect | ELKAAAKRPELSGKNTISNNSDMAEVKSMFREVLPKQGPLFVEDIMTMVLCKPKLLPLKSLTLEKLEKMHQAAQNTIRQQEMAEKDQRQITH [M1E]
30 | with no effect | KLKAAAKRPELSGKNTISNNSDMAEVKSMFREVLPKQGPLFVEDIMTMVLCKPKLLPLKSLTLEKLEKMHQAAQNTIRQQEMAEKDQRQITH [M1K]
31 | with no effect | ALKAAAKRPELSGKNTISNNSDMAEVKSMFREVLPKQGPLFVEDIMTMVLCKPKLLPLKSLTLEKLEKMHQAAQNTIRQQEMAEKDQRQITH [M1A]
32 | with no effect | MLKAAKKRPELSGKNTISNNSDMAEVKSMFREVLPKQGPLFVEDIMTMVLCKPKLLPLKSLTLEKLEKMHQAAQNTIRQQEMAEKDQRQITH [A6K]
33 | with no effect | MLKAAEKRPELSGKNTISNNSDMAEVKSMFREVLPKQGPLFVEDIMTMVLCKPKLLPLKSLTLEKLEKMHQAAQNTIRQQEMAEKDQRQITH [A6E]
34 | with no effect | MLKAEAKRPELSGKNTISNNSDMAEVKSMFREVLPKQGPLFVEDIMTMVLCKPKLLPLKSLTLEKLEKMHQAAQNTIRQQEMAEKDQRQITH [A5E]
35 | with no effect | MLKAKAKRPELSGKNTISNNSDMAEVKSMFREVLPKQGPLFVEDIMTMVLCKPKLLPLKSLTLEKLEKMHQAAQNTIRQQEMAEKDQRQITH [A5K]
36 | with no effect | MLKEAAKRPELSGKNTISNNSDMAEVKSMFREVLPKQGPLFVEDIMTMVLCKPKLLPLKSLTLEKLEKMHQAAQNTIRQQEMAEKDQRQITH [A4E]
37 | with no effect | MLKKAAKRPELSGKNTISNNSDMAEVKSMFREVLPKQGPLFVEDIMTMVLCKPKLLPLKSLTLEKLEKMHQAAQNTIRQQEMAEKDQRQITH [A4K]
38 | with no effect | MLKAAAKRPELSGANTISNNSDMAEVKSMFREVLPKQGPLFVEDIMTMVLCKPKLLPLKSLTLEKLEKMHQAAQNTIRQQEMAEKDQRQITH [K14A]
39 | with no effect | MLKAAAKRPELSGENTISNNSDMAEVKSMFREVLPKQGPLFVEDIMTMVLCKPKLLPLKSLTLEKLEKMHQAAQNTIRQQEMAEKDQRQITH [K14E]
40 | disrupting interaction strength | MLKAAAKRPELSGLNTISNNSDMAEVKSMFREVLPKQGPLFVEDIMTMVLCKPKLLPLKSLTLEKLEKMHQAAQNTIRQQEMAEKDQRQITH [K14L]
41 | with no effect | MLKAAAKRPELSGKNEISNNSDMAEVKSMFREVLPKQGPLFVEDIMTMVLCKPKLLPLKSLTLEKLEKMHQAAQNTIRQQEMAEKDQRQITH [T16E]
42 | with no effect | MLKAAAKRPELSGKNKISNNSDMAEVKSMFREVLPKQGPLFVEDIMTMVLCKPKLLPLKSLTLEKLEKMHQAAQNTIRQQEMAEKDQRQITH [T16K]
43 | with no effect | MLKAAAKRPELSGKNAISNNSDMAEVKSMFREVLPKQGPLFVEDIMTMVLCKPKLLPLKSLTLEKLEKMHQAAQNTIRQQEMAEKDQRQITH [T16A]
44 | with no effect | MLKAAAKEPELSGKNTISNNSDMAEVKSMFREVLPKQGPLFVEDIMTMVLCKPKLLPLKSLTLEKLEKMHQAAQNTIRQQEMAEKDQRQITH [R8E]
45 | with no effect | MLKAAAKAPELSGKNTISNNSDMAEVKSMFREVLPKQGPLFVEDIMTMVLCKPKLLPLKSLTLEKLEKMHQAAQNTIRQQEMAEKDQRQITH [R8A]
46 | with no effect | MLKAAAKKPELSGKNTISNNSDMAEVKSMFREVLPKQGPLFVEDIMTMVLCKPKLLPLKSLTLEKLEKMHQAAQNTIRQQEMAEKDQRQITH [R8K]
47 | with no effect | MLKAAAKRPELSGKNTISNASDMAEVKSMFREVLPKQGPLFVEDIMTMVLCKPKLLPLKSLTLEKLEKMHQAAQNTIRQQEMAEKDQRQITH [N20A]
48 | with no effect | MLKAAAKRPELSGKNTISNESDMAEVKSMFREVLPKQGPLFVEDIMTMVLCKPKLLPLKSLTLEKLEKMHQAAQNTIRQQEMAEKDQRQITH [N20E]
49 | with no effect | MLKAAAKRPEASGKNTISNNSDMAEVKSMFREVLPKQGPLFVEDIMTMVLCKPKLLPLKSLTLEKLEKMHQAAQNTIRQQEMAEKDQRQITH [L11A]
50 | with no effect | MLKAAAKRPEKSGKNTISNNSDMAEVKSMFREVLPKQGPLFVEDIMTMVLCKPKLLPLKSLTLEKLEKMHQAAQNTIRQQEMAEKDQRQITH [L11K]
51 | with no effect | MLKAAAKRPEESGKNTISNNSDMAEVKSMFREVLPKQGPLFVEDIMTMVLCKPKLLPLKSLTLEKLEKMHQAAQNTIRQQEMAEKDQRQITH [L11E]
52 | with no effect | MLKAAAKRPKLSGKNTISNNSDMAEVKSMFREVLPKQGPLFVEDIMTMVLCKPKLLPLKSLTLEKLEKMHQAAQNTIRQQEMAEKDQRQITH [E10K]
53 | with no effect | MLKAAAKRPALSGKNTISNNSDMAEVKSMFREVLPKQGPLFVEDIMTMVLCKPKLLPLKSLTLEKLEKMHQAAQNTIRQQEMAEKDQRQITH [E10A]
